No end group written: not given here. *: point of attachment. Acm = CC(=O)NC*
Columns and labels:
receptor = target: T1, receptor (Homo sapiens, UniProt P55036, INS254GER); experiment: Affinity Sensor System: receptor binding to TSP-1 and Cys(Acm)-Ser-Val-Thr-Cys(Acm)-Gly; conditions: Example 8, FIG. 11
T1 construct: Full length cDNA cloned in the PBK-CMV vector was used as a template; 6xHis (pTrcHisA leader) (N); made in house; host or cells: bacteria (pTrcHisA vector)
T1 sequence (P55036 with tags, fused parts or gaps INS254GER): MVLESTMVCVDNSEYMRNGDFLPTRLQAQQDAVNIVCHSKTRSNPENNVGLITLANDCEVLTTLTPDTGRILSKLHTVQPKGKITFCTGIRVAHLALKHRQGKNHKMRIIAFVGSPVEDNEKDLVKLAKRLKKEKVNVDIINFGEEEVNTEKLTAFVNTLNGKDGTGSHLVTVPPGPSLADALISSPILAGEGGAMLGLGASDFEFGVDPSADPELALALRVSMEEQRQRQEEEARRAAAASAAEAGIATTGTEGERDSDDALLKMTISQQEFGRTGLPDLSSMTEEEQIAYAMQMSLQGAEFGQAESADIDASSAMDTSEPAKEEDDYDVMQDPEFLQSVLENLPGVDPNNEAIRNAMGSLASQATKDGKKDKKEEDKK
Experimental: (§1) Binding of undenatured (in the ligand blot protocol above, the receptor is denatured by SDS) recombinant receptor to TSP-1 was evaluated using the Affinity Sensor System, Cambridge, UK. This is an optical binding method that uses a cuvette to which either ligand or receptor is covalently coupled. A laser beam is used to detect bound proteins to the protein-derivatized cuvette surface. This method is highly sensitive and measures both the association and dissociation rate constants for ligand receptor interactions. The instrument assumes that one molecule of receptor binds one molecule of TSP-1 and calculates the dissociation constant (KD) according to the following relationships:
The methodology set forth in Example 6 was followed except that TSP-1 and Cys(Acm)-Ser-Val-Thr-Cys(Acm)-Gly (SEQ ID NO: 6) were immobilized on cuvettes and the receptor was added to the cuvettes. The Acm version of the peptide was used to increase its stability in the experiment.

[1] = target: T2, biotin-angiocidin complex binding to TSP-1 (Homo sapiens, UniProt P55036, INS254GER); experiment: Biotin-avidin receptor binding assay: competition; conditions: Example 25, peptide 1 mg/ml, FIG. 32
T2 sequence (P55036 with tags, fused parts or gaps INS254GER): T1 sequence (P55036 with tags, fused parts or gaps INS254GER)
Experimental: In the following experiments, TSP-1 was covalently bound to a substrate, biotinylated angiocidin was added to the plate, and avidin-peroxidase was added to measure how much biotinylated angiocidin was attached to the TSP-1. The avidin-peroxidase was measured using a spectrophotometer at an absorbance of 450 nm.
Free angiocidin was added to the system to compete with the biotinylated angiocid in. […] Immobilized BSA was used as a negative control.
The TSP-1 peptide Cys-Ser-Val-Thr-Cys-Gly (SEQ ID NO: 1) was added to the system to compete with the TSP-1 on the plate for binding with the biotinylated angiocidin. The scrambled peptide Val-Cys-Thr-Gly-Ser-Cys (SEQ ID NO: 15) was used as a negative control and had no effect.
The avidin-biotin system discussed above was used to evaluate the competitive effect of various peptides on the binding of TSP-1 and angiocidin. […] The scrambled peptide Val-Cys-Thr-Gly-Ser-Cys-Gly (SEQ ID NO: 21) and the d-orientation peptide d-Cys-Ser-Val-Thr-Cys-Gly (SEQ ID NO: 22) were used as negative controls.

receptor-TSP-1 complex [2] = target: T3, receptor-TSP-1 complex (Homo sapiens, UniProt P55036, INS254GER); experiment: Affinity Sensor System: peptide competition of receptor binding to immobilized TSP-1; conditions: 10 fold molar excess of peptide
T3 construct: Full length cDNA cloned in the PBK-CMV vector was used as a template; 6xHis (pTrcHisA leader) (N); made in house; host or cells: bacteria (pTrcHisA vector)
T3 sequence (P55036 with tags, fused parts or gaps INS254GER): T1 sequence (P55036 with tags, fused parts or gaps INS254GER)
Experimental: as §1
(§2) About 1 μg of TSP-1 was coupled to the cuvette through its amino groups to COOH groups on the cuvette surface. Unreacted groups on the cuvette surface were then blocked with ethanolamine and albumin. […] A dissociation constant of […] was calculated from a plot of the pseudo first order rate constant for association versus the concentration of the receptor, as shown in FIG. 7. Instrument response vs time readings shown in FIG. 8, where the instrument response is proportional to the concentration of receptor-TSP-1 complex, were used to plot the data points on FIG. 7.
(§3) […] The peptides used were Val-Cys-His-Ser-Lys-Thr-Arg (SEQ ID NO: 8), Val-Cys(Acm)-His-Ser-Lys-Thr-Arg (SEQ ID NO: 9), and Pro-His-Ser-Arg-Asn (SEQ ID NO: 10). The first two peptides are derived from the binding portion of the receptor, where it interacts with the Cys-Ser-Val-Thr-Cys-Gly (SEQ ID NO: 1) portion of the TSP-1 protein. The third peptide is a control.

[3] = system: human umbilical vein endothelial cells (HUVEC); experiment: ALAMAR BLUE cell viability assay; assay type: cell-based
Experimental: (§4) Bovine aortic endothelial cells (BAEC), human umbilical vein endothelial cells (HUVEC), fibroblast cells, A549 human lung carcinoma cells (A549), MDA-MB231 human breast carcinoma cells (MB231), MCF7 human breast carcinoma cells (MCF7) were treated with 37 μg/ml of receptor, or buffer alone, for 24 hours. Viability of the cells was measured using the ALAMAR BLUE™ assay, which measures the capacity of cells to metabolize the ALAMAR BLUE™ dye. The ALAMAR BLUE™ assay (available from Biosource International, Camarillo, Calif.) quantitatively measures the proliferation of cell lines and can establish the relative cytotoxicity of chemical agents. The assay incorporates a fluorometric/colorimetric growth indicator based on detection of metabolic activity. The system incorporates an oxidation-reduction (redox) indicator that both fluoresces and changes color in response to chemical reduction of growth medium resulting from cell growth. This causes the redox indicator to change from its oxidized, non-fluorescent, blue form to its reduced, fluorescent, red form. Data can be collected using either fluorescence-based instrumentation (530-560 nm excitation wavelength and 590 nm emission wavelength) or absorbance-based instrumentation (570 nm and 600 nm).
Similarly, the effect of receptor on viability of BAEC cells was compared to mouse Lewis lung carcinoma cells, using the same method.
The effect of angiocidin on HUVEC cell viability was evaluated, and FGF and TSP-1 were added to determine whether they ameliorated the angiocidin effect on cell viability. FGF (Fibroblast Growth Factor) is an endothelial cell mitogen, which promotes cell growth. […] TSP-1 was expected to reverse the inhibition of angiocidin; however, quantities added may have been insufficient to provide the correct molar ratio.

[4] = system: Bovine aortic endothelial cells (BAEC); experiment: ALAMAR BLUE cell viability assay; assay type: cell-based; conditions: TSP-1 at 20 μg/ml and 5 μg/ml
Experimental: as §4
BAEC and BSM cells were treated with increasing concentrations of angiocidin (0, 0.625, 1.25, 2.5, 5, 15, 26 and 37 μg/ml) for 24 hours. Cell viability was measured using the ALAMAR BLUE Tm assay. […] In contrast, BSM cells are unaffected.
The methods of Example 21 were followed, except BAEC cells were used. Additionally, TSP-1 was added at both 20 μg/ml and 5 μg/ml.
As discussed in Example 19 above, angiocidin was added to BAEC cells. Fragments of angiocidin were added as well. […] GST was used as a negative control. V36-R42, the active site of the antisecretory factor, had no effect, illustrating that angiocidin plays a different role from antisecretory factor.
Bovine aortic endothelial cells (BAEC) were cultured overnight in serum-free media containing either 37 μg/ml his-tagged angiocidin or his-tagged GST. Both angiocidin and GST were expressed in bacteria transformed with the pTrcHisA expression vector and purified on nickel affinity chromatography under non-denaturing conditions. Viability was measured by the ALAMAR BLUE™ assay.
This study examined the effect of anti-angiocidin antibody on angiocidin-mediated inhibition of BAEC viability. BAEC were cultured overnight in serum-free media containing either 5 μg/ml angiocidin, 5 μg/ml angiocidin plus 100 μg/ml control IgG, or 5 μg/ml angiocidin plus 100 μg/ml anti-angiocidin IgG. Viability was measured using the ALAMAR BLUE™ assay, described above.
The endothelial cells (BAEC) were incubated overnight 37 μg/ml of the angiocidin, fragments, and GST. Viability was measured using the ALAMAR BLUE™ assay.

TSP-1 = TSP-1 (Homo sapiens, UniProt P07996); experiment: Affinity Sensor System (resonant mirror biosensor): binding to TSP-1 coupled to cuvette; conditions: peptide alone, TSP-1 immobilized in cuvette
Chain of TSP-1 (P07996 19-1170): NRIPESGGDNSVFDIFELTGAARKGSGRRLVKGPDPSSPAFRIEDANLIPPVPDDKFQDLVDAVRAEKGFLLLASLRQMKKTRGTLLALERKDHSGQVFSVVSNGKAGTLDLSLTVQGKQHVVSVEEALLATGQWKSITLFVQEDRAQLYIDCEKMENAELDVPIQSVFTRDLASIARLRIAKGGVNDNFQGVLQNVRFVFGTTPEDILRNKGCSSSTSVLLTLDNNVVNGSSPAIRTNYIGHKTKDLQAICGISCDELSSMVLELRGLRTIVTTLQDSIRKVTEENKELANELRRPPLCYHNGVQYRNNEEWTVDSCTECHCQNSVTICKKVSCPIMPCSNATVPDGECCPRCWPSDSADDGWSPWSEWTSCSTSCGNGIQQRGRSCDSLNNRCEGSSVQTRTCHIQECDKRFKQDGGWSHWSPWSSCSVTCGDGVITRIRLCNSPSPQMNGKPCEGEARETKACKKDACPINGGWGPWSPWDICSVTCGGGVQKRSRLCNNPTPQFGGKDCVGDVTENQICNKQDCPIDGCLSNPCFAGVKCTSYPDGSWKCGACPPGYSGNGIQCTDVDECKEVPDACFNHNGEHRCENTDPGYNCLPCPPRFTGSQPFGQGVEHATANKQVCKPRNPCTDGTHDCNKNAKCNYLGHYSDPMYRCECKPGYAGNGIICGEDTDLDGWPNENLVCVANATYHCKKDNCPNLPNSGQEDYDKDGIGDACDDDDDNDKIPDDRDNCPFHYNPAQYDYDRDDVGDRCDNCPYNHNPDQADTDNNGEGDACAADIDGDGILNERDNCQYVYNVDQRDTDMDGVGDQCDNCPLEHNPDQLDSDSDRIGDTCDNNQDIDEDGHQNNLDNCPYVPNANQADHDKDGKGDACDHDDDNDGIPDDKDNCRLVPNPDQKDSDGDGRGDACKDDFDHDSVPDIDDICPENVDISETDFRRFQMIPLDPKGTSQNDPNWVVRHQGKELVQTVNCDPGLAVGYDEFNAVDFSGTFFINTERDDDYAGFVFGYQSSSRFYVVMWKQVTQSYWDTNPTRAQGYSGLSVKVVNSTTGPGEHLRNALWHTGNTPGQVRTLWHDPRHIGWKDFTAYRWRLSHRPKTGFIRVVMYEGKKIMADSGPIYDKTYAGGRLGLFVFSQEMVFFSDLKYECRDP
Experimental: as §1
1) kass[R][TSP-1]=kdiss[R-TSP-1] at equilibrium, where kass is the second order rate constant for association and kdiss is the first order rate constant for dissociation
2) KD=[R][TSP-1]/[R-TSP-1]=kdiss/kass
3) [R-TSP-1]t=[R-TSP-1]eq[1-exp(-kont)], where the instrument response measure in arc seconds is proportional to receptor-TSP-1 complex R-TSP-1].
4) kon=kass[L]+kdiss where kon is the pseudo-first order rate constant for receptor TSP-1 interaction.
as §2, §3

B16-F10 Melanoma Cells = experiment: Cell adhesion to immobilized receptor peptides; assay type: cell-based, mouse; conditions: Example 12, FIG. 14
Experimental: For the adhesion assay, in a 96 well plate, duplicate wells were covered with either TSP-1 (40 μg/ml), fibronectin (40 μg/ml), or and 1% bovine serum albumin (BSA). The wells were dried out overnight and then blocked with BSA. 100 μl of a suspension containing 2×10^5 cells were plated in the protein covered wells and incubated at 37^□ C. for 20 minutes to 1 hour. The non-adherent cells were removed and the wells were washed with a Hepes buffer. The adherent cells were fixed with 2.5% glutaraldehyde for 10 minutes and stained with 0.2% Giemsa. The stain was washed off and the cells were counted in a field of 1 mm square. Cells adhering to BSA were considered background while cells adhering to fibronectin were the positive control.
The method of Example 12 was followed except the receptor peptides Val-Cys-His-Ser-Lys-Thr-Arg (SEQ ID NO: 8) and Val-Cys(Acm)-His-Ser-Lys-Thr-Arg (SEQ ID NO: […]) were immobilized on the plates. TSP-1 and fibronectin were also immobilized on plates, as well as negative control peptides (Ala-Ser-Val-Thr-Ala-Arg (SEQ ID NO: 11) and Pro-His-Ser-Arg-Asn (SEQ ID NO: 10)) and bovine serum albumin. […] This provides support for the theory that another protein may be associated with TSP-1 and its receptor, or that the receptor is released and rebound to the membrane of the cell by another protein.

receptor-TSP-1 complex [5] = experiment: Affinity Sensor System: peptide competition of receptor binding to immobilized TSP-1; conditions: peptide:receptor 1000 and 100 molar ratio
Experimental: as §1, §2, §3

| Substance | binding to the receptor (receptor) | peptide competition of TSP-1 receptor binding [1] | extent of receptor binding, % of buffer control (receptor-TSP-1 complex [2]) [%] | cell growth, factor alone ([3]; FGF 2 ng/ml, TSP-1 20 μg/ml) | reversal of the angiocidin inhibition of viability ([3]; angiocidin 37 μg/ml plus FGF 2 ng/ml or TSP-1 20 μg/ml) | reversal of the angiocidin inhibition of viability [4] | direct binding to immobilized TSP-1 (TSP-1) | cell adhesion to immobilized peptide (B16-F10 Melanoma Cells) | inhibition of receptor binding to immobilized TSP-1 (receptor-TSP-1 complex [5]) |
| --- | --- | --- | --- | --- | --- | --- | --- | --- | --- |
| Cys(Acm)-Ser-Val-Thr-Cys(Acm)-Gly (C(Acm)SVTC(Acm)G) | bind to the receptor | inhibited binding | 47 | – | – | – | – | – | – |
| TSP-1: Thrombospondin, a cell adhesive protein and matrix molecule | bind to the receptor | – | – | stimulated cell growth above control | neither the addition of FGF or TSP-1 reversed the inhibition of angiocidin | can ameliorate some of the inhibition of angiocidin | – | – | – |
| VCHSKTR | – | – | – | – | – | – | bind directly to the immobilized TSP-1 | cause the cells to adhere to the plates, with similar affinity to the positive controls fibronectin and TSP-1 | inhibits binding of the receptor with the immobilized TSP-1 |
